# T1: primary hexavalent scaffold CohII-C-A-CBM-T-G-F
# T1 chain: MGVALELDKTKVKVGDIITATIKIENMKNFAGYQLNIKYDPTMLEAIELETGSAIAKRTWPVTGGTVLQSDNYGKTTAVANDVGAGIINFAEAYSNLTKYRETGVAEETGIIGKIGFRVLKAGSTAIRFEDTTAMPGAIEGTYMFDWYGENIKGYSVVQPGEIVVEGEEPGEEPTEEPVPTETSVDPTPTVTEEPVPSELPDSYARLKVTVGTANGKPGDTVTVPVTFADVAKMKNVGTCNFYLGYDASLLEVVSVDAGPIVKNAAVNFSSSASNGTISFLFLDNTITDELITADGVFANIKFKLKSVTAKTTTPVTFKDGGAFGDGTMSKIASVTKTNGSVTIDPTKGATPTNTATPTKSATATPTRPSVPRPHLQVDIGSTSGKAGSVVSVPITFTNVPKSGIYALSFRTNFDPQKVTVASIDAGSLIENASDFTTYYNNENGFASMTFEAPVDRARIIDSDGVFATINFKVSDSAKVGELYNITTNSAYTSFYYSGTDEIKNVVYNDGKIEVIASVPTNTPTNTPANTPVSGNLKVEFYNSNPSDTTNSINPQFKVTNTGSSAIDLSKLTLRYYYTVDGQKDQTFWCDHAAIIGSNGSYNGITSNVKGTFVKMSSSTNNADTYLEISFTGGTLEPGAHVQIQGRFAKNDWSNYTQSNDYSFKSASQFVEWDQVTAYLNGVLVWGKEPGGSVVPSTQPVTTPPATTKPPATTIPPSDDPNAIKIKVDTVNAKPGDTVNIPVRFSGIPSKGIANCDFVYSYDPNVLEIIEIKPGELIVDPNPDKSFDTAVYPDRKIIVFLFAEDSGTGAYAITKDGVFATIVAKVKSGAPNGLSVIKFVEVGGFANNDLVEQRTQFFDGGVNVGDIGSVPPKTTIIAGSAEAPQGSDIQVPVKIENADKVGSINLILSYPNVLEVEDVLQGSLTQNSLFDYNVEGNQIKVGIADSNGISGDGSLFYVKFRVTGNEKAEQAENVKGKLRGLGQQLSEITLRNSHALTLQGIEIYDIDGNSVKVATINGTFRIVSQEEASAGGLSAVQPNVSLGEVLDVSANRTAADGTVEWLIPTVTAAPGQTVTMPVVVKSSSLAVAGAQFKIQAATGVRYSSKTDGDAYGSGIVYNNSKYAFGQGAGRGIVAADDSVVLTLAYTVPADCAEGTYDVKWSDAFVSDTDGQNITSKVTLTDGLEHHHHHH
# B1: adaptor scaffold CBM-A-B-T-DockII (other)
# chain: MANTPVSGNLKVEFYNSNPSDTTNSINPQFKVTNTGSSAIDLSKLTLRYYYTVDGQKDQTFWCDHAAIIGSNGSYNGITSNVKGTFVKMSSSTNNADTYLEISFTGGTLEPGAHVQIQGRFAKNDWSNYTQSNDYSFKSASQFVEWDQVTAYLNGVLVWGKEPGGSVVPSTQPVTTPPATTKPPATTKPPATTIPPSGSDLQVDIGSTSGKAGSVVSVPITFTNVPKSGIYALSFRTNFDPQKVTVASIDAGSLIENASDFTTYYNNENGFASMTFEAPVDRARIIDSDGVFATINFKVSDSAKVGELYNITTNSAYTSFYYSGTDEIKNVVYNDGKIEVIASPTPTQSATPTVTPSATATPTQSATPTVTPSSPGNKMKIQIGDVKANQGDTVIVPITFNEVPVMGVNNCNFTLAYDKNIMEFISADAGDIVTLPMANYSYNMPSDGLVKFLYNDQAQGAMSIKEDGTFANVKFKIKQSAAFGKYSVGIKAIGSISALSNSKLIPIESIFKDGSITVTNTPTNTISVTPTNNSTPTNNSTPKPNPLSDGVVVEIGKVTGSVGTTVEIPVYFRGVPSKGIANCDFVFRYDPNVLEIIGIDPGDIIVDPNPTKSFDTAIYPDRKIIVFLFAEDSGTGAYAITKDGVFAKIRATVKSSAPGYITFDEVGGFADNDLVEQKVSFIDGGVNVGNATRSTNKPVIEGYKVSGYILPDFSFDATVAPLVKAGFKVEIVGTELYAVTDANGYFEITGVPANASGYTLKISRATYLDRVIANVVVTGDTSVSTSQAPIMMWVGDIVKDNSINLLDVAEVIRCFNATKGSANYVEELDINRNGAINMQDIMIVHKHFGATSSDYDAQLEHHHHHH
# Target: T1, primary hexavalent scaffold …
# Test: cell-based or functional assay
binder,measurement,value
B1,"wheat straw degradation, reducing sugars released after 48 hours incubation at 50 C (FIG. 5, Column 7 against Columns 4 and 6)",~2 fold

# Source: patent publication US20160186156A1 (YEDA RESEARCH AND DEVELOPMENT, published 2016)
